Reference: patent US20150072922A1, “RNASE 7 ANTIMICROBIAL PEPTIDES” (THE RESEARCH INSTITUTE AT NATIONWIDE CHILDREN'S HOSPITAL, priority 2012, published 2015)
“Also recorded” adds a separate entry of the source. Marks after values point to notes of the source that are not given here. No end group written: not given here. *: point of attachment. His tag = six-residue histidine tag at the N-terminus, N[C@@H](Cc1c[nH]cn1)C(=O)N[C@@H](Cc1c[nH]cn1)C(=O)N[C@@H](Cc1c[nH]cn1)C(=O)N[C@@H](Cc1c[nH]cn1)C(=O)N[C@@H](Cc1c[nH]cn1)C(=O)N[C@@H](Cc1c[nH]cn1)C(=O)*

Experiments:
[1] = system: Staphylococcus saprophyticus; assay: SYTOX Green bacterial cell death / membrane permeabilization assay; assay type: cell-based; details: 3 hours, FIG. 2, compared to full-length
Method: (§1) Assays of the permeabilization of bacterial membrane were performed with SYTOX green nucleic acid stain (Invitrogen™). The overnight cultures of bacteria were centrifuged at 5000 rpm for 5 min, the pellets were then washed with water and resuspended in water with an OD=0.5. 90 μl of each bacteria were then incubated with 10 μl of peptides with different concentrations for 3 hours at 37° C. in a 96-well plate. 100 μl of 2 μM SYTOX Green (Invitrogen™) were then added to each well and incubated in dark for 15 min. SYTOX green penetrates cells with compromised membranes not the membranes of live cells. The increase of fluorescence was measured using […] filters for excitation and emission wavelengths, respectively. Bacteria alone and bacteria treated with 70% ethanol were used as controls and the fluorescence from each was recorded as Fmin and Fmax. The percentage of cell death at each concentration for each fragment was calculated as below: death %=(F−Fmin)/(Finax−Fmin)*100%
(§2) To confirm the accuracy of our MIC/MBC data, cell death assays using SYTOX Green (Invitrogen), which selectivity labels nucleic acids of cells with compromised membranes of dead/dying cells were performed. Overnight cultures of bacteria were centrifuged at 5000 rpm for 5 minutes. Pellets were then washed with PBS (pH 7.4) and resuspended in PBS to an OD600 of 0.5 for Escherichia coli (UTI89) and OD600 of 0.8 for Staphylococcus saprophyticus. Per manufacturerer's instructions, 90 μl of each bacteria strain were incubated with 100 μl of 2 uM SYTOX Green for 15 minutes. Ten microliters of peptides at various concentrations were added for 3 hours at 37° C. in a 96-well plate. Compromised bacterial membranes of dead/dying cells will be labeled while lives cells are not labeled as noted by Invitrogen. Fluorescence was measured using 485 and 520-nm filters for excitation and emission wavelengths, respectively. Untreated bacteria were used as a 100% live control, and fluorescence was noted as Fmin. To elicit complete killing, bacteria were treated with 70% ethanol for 1 hour. This experimental group's fluorescence was noted as Fmax. The percentage of cell death at each concentration for each fragment was calculated as (Ffragment−Fmin)/(Fmax−Fmin)×100%.

Escherichia coli (UTI89) [2] = assay: as above; assay type: cell-based; details: 3 hours, FIG. 1, compared to full-length
Method: as §1, §2

[3] = system: Proteus mirabilis (ATCC 7002); assay: Antimicrobial kill (microdilution) assay, MIC/MBC by CFU count; assay type: cell-based; details: 3 hours, 0.1×PBS; for P. mirabilis MIC: lowest concentration that inhibits the growth of 90% of the inoculation; for P. mirabilis MBC: minimum bactericidal concentration
Method: Uropathogenic Escherichia coli (UTI89) was grown in Luria broth (LB) medium and plated on LB-agar. Uropathogenic Staphylococcus saprophyticus (ATCC 15305) was grown in LB and plated on Trypticase Soy Agar with 5% sheep blood (Fisher Scientific, Pittsburgh, Pa., USA). Uropathogenic Proteus mirabilis (ATCC 7002) was grown in LB and plated on MacConkey II Agar (Fisher Scientific, Pittsburgh, Pa., USA). These organisms were chosen as the primary organisms that account for a majority of Gram-negative and Gram-positive urinary tract infections (UTI). Anti-RNase 7 antibody was generated in rabbit with recombinant human RNase 7 (Biomatik, Wilmington, Del., USA)
(§3) Antimicrobial activities of the recombinant peptides were estimated with a microdilution assay. Briefly, the test bacteria (10^4 CFUs) were incubated with various concentrations of RNase 7 and each fragment in 50 ul 0.1×PBS buffer for 3 hours at 37° C. After incubation on Agar plates overnight at 37° C., the number of colony-forming units (CFUs) at each peptide concentration was determined. Using untreated bacterial aliquots as baseline, the minimum inhibition concentration (MIC) was defined as the lowest concentration that inhibits the growth of 90% of the inoculation, and the minimum bactericidal concentration (MBC) was defined as the lowest concentration at which less than 99.99% of the initial inoculum is viable.

[4] = system: Staphylococcus saprophyticus (ATCC 15305); assay: as above; assay type: cell-based; details: for MIC/MBC fold higher than full-length protein, S. saprophyticus: compared to full-length RNase 7; for S. saprophyticus MIC: lowest concentration that inhibits the growth of 90% of the inoculation; for S. saprophyticus MIC / S. saprophyticus MBC: 3 hours, 0.1×PBS; for S. saprophyticus MBC: minimum bactericidal concentration
Method: (§4) The antimicrobial activity of RNase 7 and its fragments was estimated using a microdilution assay. Briefly, test bacteria (10^5) were incubated with several concentrations of RNase 7 and each fragment in 50 μl 0.1×PBS buffer for 3 hours in a 37° C. incubator. Each reaction was plated on the appropriate medium and grew overnight at 37° C. The antimicrobial activity was determined by the number of colony-forming units (CFUs) the following day. The minimum inhibition concentration (MIC) is defined as the lowest concentration that inhibits the growth of 90% of the inoculation and the minimum bactericidal concentration (MB C) is defined as the lowest concentration at which less than 99.99% of the initial inoculum is viable.
as §3

Escherichia coli (UTI89) [5] = assay: as above; assay type: cell-based; details: for MIC/MBC fold higher than full-length protein, E. coli: compared to full-length RNase 7; for E. coli MIC: lowest concentration that inhibits the growth of 90% of the inoculation; for E. coli MIC / E. coli MBC: 3 hours, 0.1×PBS; for E. coli MBC: minimum bactericidal concentration; for antimicrobial activity against E. coli (in words): MIC/MBC based, mostly compared to full-length RNase 7
Method: as §4, §3

uropathogenic E. coli = assay: RNase7 antibacterial activity, MIC on strains isolated from positive urine cultures; assay type: cell-based, Escherichia coli; details: uropathogenic E. coli isolated from urine cultures (N=3)
Text: Laboratory bacterial strains from the American Type Culture Collection (ATCC, Manassas, Va.) and strains isolated from positive urine cultures were obtained from the Microbiology Laboratory at Nationwide Children's Hospital.

Row | Molecule | membrane permeabilization and death, S. saprophyticus (in words) [1] | membrane permeabilization and death, E. coli (in words) (Escherichia coli (UTI89) [2]) | P. mirabilis MIC [3] | P. mirabilis MBC [3] | MIC/MBC fold higher than full-length protein, S. saprophyticus [4] | S. saprophyticus MIC [4] | S. saprophyticus MBC [4] | MIC/MBC fold higher than full-length protein, E. coli (Escherichia coli (UTI89) [5]) | E. coli MIC (Escherichia coli (UTI89) [5]) | E. coli MBC (Escherichia coli (UTI89) [5]) | mean inhibitory concentration (MIC) (uropathogenic E. coli) | antimicrobial activity against S. saprophyticus (in words) ([4]; MIC/MBC based, mostly compared to full-length RNase 7) | MBC against E. coli (Escherichia coli (UTI89) [5]) | MIC against E. coli (Escherichia coli (UTI89) [5]) | antimicrobial activity against E. coli (in words) (Escherichia coli (UTI89) [5]) | antimicrobial activity against E. coli (in words) (Escherichia coli (UTI89) [5]; listed as 1-71)
1 | F:46-97: recombinant middle RNase 7 fragment, amino acids 46 to 97, beta sheets 2-4, N-terminal His tag ({His tag}-EPFSSVAATCQTPKIACKNGDKNCHQSHGPVSLTMCKLTSGKYPNCRYKEKR; ends and bridges not checked) | no activity compared to full length protein; also recorded: negligible activity against S. saprophyticus | enhanced permeabilization and death compared to the full-length protein; also recorded: potent membrane penetrating activity | 3.5 µM | >3.5** uM | two-fold higher | 0.44 µM | 1.75 µM | two-fold higher | 0.88 µM | 1.75 µM | – | – | – | – | – | –
2 | F:1-71: recombinant N-terminal RNase 7 fragment, amino acids 1 to 71 (SEQ ID NO: 3), N-terminal His tag (protein, listed as Homo sapiens, N-terminal His tag) KPKGMTSSQWFKIQHMQPSPQACNSAMKNINKHTKRCKDLNTFLHEPFSSVAATCQTPKIACKNGDKNCHQ | shows permeability against S. Saprophyticus | lower permeability against E. coli | .44 µM | .88 µM | – | 0.23 µM | >0.92* uM | seven-fold higher | 1.93** uM | 3.86 µM | 0.63 µM | shows antimicrobial activity against S. saprophyticus; also recorded: same activity to S. saprophyticus as full length protein | 3.86 µM | 1.93 µM | lower activity against E. coli; also recorded: markedly reduced activity against E. coli | least activity; also recorded: significantly decreased activity
3 | F:30-97: recombinant middle RNase 7 fragment, amino acids 30 to 97, first four beta sheets, N-terminal His tag (protein, ends and bridges not checked, recombinant middle RNase 7 fragment, amino acids 30 to 97, first four beta sheets, N-terminal His tag) {His tag}-INKHTKRCKDLNTFLHEPFSSVAATCQTPKIACKNGDKNCHQSHGPVSLTMCKLTSGKYPNCRYKEKR | less activity when compared with full-length RNase 7 | less activity when compared with full-length RNase 7 | >3.5** uM | >3.5** uM | two-fold higher | 0.44 µM | 1.75* uM | two-fold higher | 0.44 µM | 0.88 µM | – | – | – | – | – | –
